Biological target: Soluble HLA-DR4 (DRB1*0401) (human)

IL-4 secretion by pooled splenocytes and lymph node cells of CII-immunized DR4 transgenic mice (chimeric DR4 on the cells) cultured with 100 μg/ml peptide	Substance
66 pg/mL	CII(256-276)(F263N, E266A) analog peptide
48 pg/mL	CII(256-276)(F263N, E266D) analog peptide
